Laboratory results: US20230242624A1 (NEURIMMUNE, published 2023)
Where a chain is given by its changes, count along the chain named. Several values for one entry are separate records, joined by “and”; a condition that tells them apart may be missing. Equal values may be shown once.

B1: NI-607.429_E4 (antibody, V domains shown)
VH: QVQLVESGGGLVQPGGSLRLSCAASGFTVSSNYMSWVRQAPGKGLEWVSVIYSGGSTFYADSVKGRFTISRDNSKNTLYLQMNSLRAEDTAVYYCARDLQESGMDVWGQGTTVTVSS
VL: DIQLTQSPSSVSASVGDRVTITCRASQGISSWLAWYQQKPGKAPKLLIYAASSLQSGVPSRFSGSGSGTDFTLTISSLQPEDFATYYCQQANSFPTFGQGTRLEIK
B2: NI-607.532_C11 (antibody, V domains shown)
VH: B1 VH with V12I, F58Y, Y79F, E101Y, S102Y
VL: DIQMTQSPSFLSASVGDRVTITCRASQGISSYLAWYQQKPGKAPKLLIYAASTLQSGVPSRFSGSGSGTEFTLTISSLQPEDFATYYCQQLDSYPPRDTFGQGTKVEIK
B3: NI-607.429_B9 (antibody, V domains shown)
VH: EVQLVESGGGLVQPGGSLRLSCAASGFTFSSYWMSWVRQAPGKGLEWVANIKQDGSEKYYVDSVKGRFTISRDNAKNSLYLQMNSLRAEDTAVYYCASLFWRRGSFDPWGQGTLVTVSS
VL: QSVLTQPHSVSESPGKTVTISCTRSTGSIASNYVQWYQQRPGSAPTTVIYEDNQRPSGVPDRFSGSIDSSSNSASLTISGLKTEDEADYYCQSYDTSSYWVFGGGTKLTVL
B4: NI-607.274_B7 (antibody, V domains shown)
VH: QVQLVESGGGRVQPGRSLRLSCAASGFTFSTHGMHWVRQVPGKGLDWITGITYDGSDQFYADSVKGRFTISRDNSKNMLYLQMNSLRAEDTAVYFCAKDLEWLTNYLDHWGQGTLVTVSS
VL: DVVMTQSPGTLSVSPGERATLSCRASQNINYNLAWYQQKPGQAPRLLIFDASTRATGIPARFTGSGSGTEFTLTISSLQSEDFAVYYCQQSNAWLTFGGGTKVEIK
B5: NI-607.426_F11 (antibody, V domains shown)
VH: QVQLVESGGGLVQPGGSLRLSCAASGFTFSSYWMSWVRQAPGKGLEWVANIKQDGSEKYYVDSVKGRFTISRDNAKNSLYLQMNSLRAEDTAVYYCARGLVGQWLGVDYWGQGTLVTVSS
VL: QSVLTQPHSVSESPGKTVTISCTGSSGSIASNYVQWYQQRPGSAPTTVIYEDNQRPSGVPDRFSGSIDSSSNSASLTISGLKTEDEADYYCQSYDSSNWVFGGGTKLTVL
B6: NI-607.529_B9 (antibody, V domains shown)
VH: QVQLQESGPGLVKPSETLSLTCTVSGGSISSSSYYWGWIRQPPGKGLEWIGNIYYSGSTYYNPSLKSRVTISVDTSKNQFSLKLNSVTAADTAVYFCARLLWLRGSYYWGQGTLVTVSS
VL: B5 VL with Q1S, S2Y, V3E
B7: NI-607.427_C5 (antibody, V domains shown)
VH: QVQLVQSGAEVKKPGASVKVSCKASGYTFTSYGISWVRQAPGQGLEWMGWISAYNGNTNYAQKLQGRVTMTTDTSTSTAYMELRSLRSDDTAVYYCARDNRAGWDQLDYWGQGTLVTVSS
VL: not shown
B8: NI-607.532_D3 (antibody, V domains shown)
VH: EVQLVQSGAEVKRPGASVKVSCKASGYHFTDYYIHWVRQAPGQGLEWMGWINPNSGGTNYAQKFQGRVTMTRDTSISTAYMELSRLRSDDTAVYYCARVYYYDSSSSADYWGQGTLVTVSS
VL: not shown
B9: NI-607.531_C8 (antibody, V domains shown)
VH: EVQLVESGGGVVQPGRSLRLSCTASGFTFSFYSVHWVRQAPGKGLEWVAVISYDGSTKYYADSVKGRFTISRDNSKNTLYLQMDSLRTEDTAVYYCASPPISPIPAAGTPLAYWGQGTLVTVSS
VL: not shown
B10: NI-607.532_F3 (antibody, V domains shown)
VH: EVQLVQSGAEVKKPGESLKISCKGFGYIFSNDWIGWVRQKPGKGLEWMGIIYPGDSDTRYSPSFRGQVTISADKSVSTAYLQWDSLKASDTAVYYCTRPRYTTMIVGSNPFDVWGQGTTVTVSS
VL: QSVLTQPPSVSGAPGQRVTISCTGSSSNIGGGYDVHWYQKLPGTAPKLLIFDNDNRPSGVPDRFSGSKSDTSASLTITGLQAEDEADYFCQSYDSSLSGSGVVFGGGTKLTVL
B11: NI-607.532_F9 (antibody, V domains shown)
VH: EVQLVESGGNLIQPGGSLRLSCAASGFTVSSNYMSWVRQAPGKGLEWVSVIYSGGSTYYADSVKGRFTISRDNSRNTLYLQMNSLRAEDTAVYFCARDRVVRGVRGNGMDVWGQGTTVTVSS
VL: AIRMTQSPSSLSASVGDRVTITCQASQDINIYLNWYQQRPGKAPKLLIYDASNLETGVPSRFSGSGSGTDFTFTISSLQPEDIATYYCHQYDNLPRTFGQGTKVDIK
B12: NI-607.429_E4 IgG4 (antibody, V domains shown)
VH: B1 VH
VL: B1 VL
B13: NI-607.532_D3 IgG4 (antibody, V domains shown)
VH: B8 VH
VL: not shown

Molecular target: T1, BSA (Sigma-Aldrich) (bovine, UniProt P02769 25-607)
T1 construct: also called bovine serum albumin; BSA control
Assay: direct ELISA on coated BSA

B1: no binding (tested: 400 nM).
B2: no binding (tested: 400 nM).
B3: no binding (tested: 400 nM).
B4: no binding (tested: 400 nM).
B5: no binding (tested: 400 nM).
B6: no binding (tested: 400 nM).
B7: no binding (tested: 400 nM).
B8: no binding (tested: 400 nM).

Molecular target: SARS-CoV-2 Spike (S) protein on vesicular stomatitis virus (VSV) pseudoviruses (SARS-CoV-2, UniProt P0DTC2 14-1273)
Assay: cell-based or functional assay

First: B1
Second: B2
The “IC50, pseudovirus entry assay (luciferase, HEK 293T-ACE2 cells)” value (from here on “IC50, pseudovirus entry assay”) of the first is 2.5-fold lower: 0.035 µg/mL for the first, 0.0872 µg/mL for the second.

Compared with B3, B4 is higher in “IC50, pseudovirus entry assay” value: 7.1 µg/mL for the first, over 100 µg/mL for the second.

First: B5
Second: B6
The “IC50, pseudovirus entry assay” value of the first is higher: over 100 µg/mL for the first, 1.9 µg/mL for the second.

First: B7
Second: B10
The “IC50, pseudovirus entry assay” value of the first is higher: over 100 µg/mL for the first, 11.7 µg/mL for the second.

Compared with B11, B8 is 5.8-fold higher in “IC50, pseudovirus entry assay” value: 0.364 µg/mL for the first, 2.1 µg/mL for the second.

In the case of B9, the “IC50, pseudovirus entry assay” value is reported as 86.4 ng/mL and 0.572 nM.

Molecular target: T2, SARS-CoV-2-S1 (RBD)-His protein (Trenzyme) (SARS-CoV-2, UniProt P0DTC2 319-541)
Assay: direct ELISA on coated RBD-His

Going from B1 to B2, the EC50 rises from 0.0086 nM to 0.013 nM (1.5-fold). The first is the more potent here.

First: B3
Second: B4
The EC50 of the first is 1.5-fold lower: 0.014 nM for the first, 0.021 nM for the second. The first is the more potent here.

Going from B5 to B6, the EC50 rises from 0.017 nM to 0.034 nM (2-fold).

B7 and B9 are within 1.5-fold of each other in EC50: 0.014 nM for the first, 0.011 nM for the second.

Compared with B10, B11 is 7.6-fold lower in EC50: 0.019 nM for the first, 0.0025 nM for the second. The second is the more potent here.

Work on B8 yielded an EC50 of 0.0049 nM.

Molecular target: T2, SARS-CoV-2-S1 (RBD)-His protein …
Assay: not given

B9 was tested, and the “IC50 (read off the curve)” value was about 0.03 µg/mL.

Molecular target: T2, SARS-CoV-2-S1 (RBD)-His protein …
Assay: iQue flow cytometry, antigen-coated beads

B1 and B2 are within 1.5-fold of each other in EC50: 1.9 nM for the first, 2.4 nM for the second.

Compared with B3, B4 is 2.8-fold lower in EC50: 1.87 nM for the first, 0.67 nM for the second. The second is the more potent here.

B5 and B6 are within 1.5-fold of each other in EC50: 0.89 nM for the first, 1 nM for the second.

First: B7
Second: B9
The EC50 of the first is 2.7-fold higher: 3.2 nM for the first, 1.2 nM for the second. The second is the more potent here.

Going from B10 to B11, the EC50 rises from 1.2 nM to 3.3 nM (2.8-fold).

In the case of B8, the EC50 is reported as 1 nM.

Molecular target: recombinant SARS-CoV Spike protein (RBD, His tag) (SARS-CoV, UniProt P59594 306-527)
Assay: iQue flow cytometry, antigen-coated beads

Compared with B6, B7 is 6.7-fold lower in EC50: 20 nM for the first, 3 nM for the second. The second is the more potent here.

First: B9
Second: B10
The EC50 of the first is 770-fold higher: 1000 nM for the first, 1.3 nM for the second. The second is the more potent here.

B11 and B8 are the same in EC50: 1000 nM for the first, 1000 nM for the second.

Molecular target: T3, MERS-CoV Spike protein fragment (RBD, aa 367-606, His tag) (MERS-CoV, UniProt K9N5Q8 367-606)
T3 sequence: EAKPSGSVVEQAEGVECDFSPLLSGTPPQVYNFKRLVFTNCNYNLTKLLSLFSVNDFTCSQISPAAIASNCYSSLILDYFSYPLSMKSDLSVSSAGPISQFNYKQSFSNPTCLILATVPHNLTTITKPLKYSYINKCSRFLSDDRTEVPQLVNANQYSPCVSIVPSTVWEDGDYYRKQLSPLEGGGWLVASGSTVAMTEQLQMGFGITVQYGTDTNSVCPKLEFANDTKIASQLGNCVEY
Assay: iQue flow cytometry, antigen-coated beads

First: B1
Second: B2
The EC50 of the first is 5-fold lower: 200 nM for the first, 1000 nM for the second. The first is the more potent here.

First: B3
Second: B4
The EC50 of the first is 1.5-fold lower: 600 nM for the first, 900 nM for the second. The first is the more potent here.

Going from B5 to B6, the EC50 falls from 1000 nM to 300 nM (3.3-fold).

Going from B7 to B9, the EC50 rises from 600 nM to 1000 nM (1.7-fold).

B10 and B11 are the same in EC50: 1000 nM for the first, 1000 nM for the second.

In the case of B8, the EC50 is reported as 1000 nM.

Molecular target: T2, SARS-CoV-2-S1 (RBD)-His protein …
Assay: direct ELISA on coated RBD-His
Remark: another data set of the same source

With B9 the EC50 was about 0.017 nM.

Molecular target: T2, SARS-CoV-2-S1 (RBD)-His protein …
Assay: competition ELISA, RBD binding to coated ACE2; IgG1

Binder B9 has an IC50 of about 0.132 µg/mL.

Molecular target: T2, SARS-CoV-2-S1 (RBD)-His protein …
Assay: competition ELISA, RBD binding to coated ACE2

B1 was tested, and the IC50 was ~0.345 µg/mL and ~2.3 nM.
B12 was tested, and the IC50 was ~0.699 µg/mL and ~4.65 nM.
With B2 the IC50 was ~1.12 µg/mL and ~7.44 nM.
B7 was tested, and the IC50 was ~2.15 µg/mL and ~14.3 nM.
In the case of B11, the IC50 is reported as ~0.668 µg/mL and ~4.4 nM.
With B8 the IC50 was ~0.457 µg/mL and ~3 nM.
In the case of B13, the IC50 is reported as ~0.457 µg/mL and ~3 nM.

Molecular target: T2, SARS-CoV-2-S1 (RBD)-His protein …
Assay: competition ELISA, RBD binding to coated ACE2
Remark: another data set of the same source

Compared with B1, B2 is 3-fold higher in IC50: 0.275 nM for the first, 0.826 nM for the second.

Compared with B3, B4 is 110-fold higher in IC50: 0.074 nM for the first, 7.8 nM for the second. The first is the more potent here.

Compared with B5, B6 is 9.8-fold lower in IC50: 1.14 nM for the first, 0.116 nM for the second.

First: B7
Second: B9
The IC50 of the first is 19-fold higher: 2.88 nM for the first, 0.153 nM for the second. The second is the more potent here.

First: B10
Second: B11
The IC50 of the first is 2.2-fold lower: 0.353 nM for the first, 0.775 nM for the second. The first is the more potent here.

Binder B8 has an IC50 of 0.917 nM.
